Experiments:
[1] = molecular target: T1, rHuman Erythropoietin R/Fc Chimera, CF (R&D Systems Cat#963-ER) (human, UniProt P19235 25-250); experiment: MSD Multispot ECL, antigen spotted on plate, Fab at 3.8 nM; blank spot 198
T1 construct: Bought Fc chimera; also called EPO R/Fc; Epo R; Fc part of the bought chimera not given
T1 sequence (looked up): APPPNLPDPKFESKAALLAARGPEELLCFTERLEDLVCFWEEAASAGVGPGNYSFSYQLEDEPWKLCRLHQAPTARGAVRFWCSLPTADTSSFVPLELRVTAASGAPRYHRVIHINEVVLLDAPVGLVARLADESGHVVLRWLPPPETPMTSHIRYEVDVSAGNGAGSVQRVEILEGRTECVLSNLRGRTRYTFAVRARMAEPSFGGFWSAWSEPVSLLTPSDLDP

[2] = molecular target: T2, rHuman P-Cadherin/Fc Chimera, CF (R&D Systems Cat#861-PC) (human, UniProt P22223 108-654); experiment: as above
T2 construct: Bought Fc chimera; Fc part of the bought chimera not given

[3] = molecular target: T3, Recombinant Human DLL4 (R&D Systems Cat#1506-D4/CF) (human, UniProt Q9NR61 27-524); experiment: as above
T3 construct: Bought recombinant protein; also called rHuman DLL4; delta-like protein 4

[4] = molecular target: T4, rHuman Notch-1/Fc Chimera, CF (R&D Systems Cat#3647-TK) (human, UniProt P46531 19-526); experiment: as above
T4 construct: Bought Fc chimera; Fc part of the bought chimera not given

[5] = molecular target: T5, rHuman CD44/Fc Chimera, CF (R&D Systems Cat#3660-CD) (human, UniProt P16070 21-220); experiment: as above
T5 construct: Bought Fc chimera; Fc part of the bought chimera not given

[6] = molecular target: T1, rHuman Erythropoietin R/Fc Chimera, CF …; experiment: MSD Multispot ECL, antigen spotted on plate, Fab at 7.5 nM; blank spot 217
[7] = molecular target: T2, rHuman P-Cadherin/Fc Chimera, CF (R&D …); experiment: as above
[8] = molecular target: T3, Recombinant Human DLL4 (R&D Systems …); experiment: as above
[9] = molecular target: T5, rHuman CD44/Fc Chimera, CF (R&D Systems …); experiment: as above
[10] = molecular target: T6, rHuman ErbB2/Fc Chimera, CF (R&D Systems Cat#1129-ER) (human, UniProt P04626 23-652); experiment: MSD multispot ECL, antigen spotted on plate, Fab 44.1 nM; blank spot 200
T6 construct: Bought from R&D Systems; also called human epidermal growth factor 2 receptor (ErbB2); not shown: Fc of the bought chimera

[11] = molecular target: T7, rHuman CD44/Fc Chimera, CF (R&D Systems Cat#3660-CD) (human, UniProt P16070 21-220); experiment: as above
T7 construct: Bought from R&D Systems; not shown: Fc of the bought chimera

[12] = molecular target: T8, rHuman HGF R/c-MET/Fc Chimera, CF (R&D Systems Cat#358-MT/CF) (human, UniProt P08581 25-932); experiment: as above
T8 construct: Bought from R&D Systems; also called HGF R/Fc; hepatocyte growth factor receptor (HGF R/c-Met); not shown: Fc of the bought chimera

[13] = molecular target: T9, rHuman Erythropoietin R/Fc Chimera, CF (R&D Systems Cat#963-ER) (human, UniProt P19235 25-250); experiment: as above
T9 construct: Bought from R&D Systems; also called EPO R/Fc; Epo R/Fc chimera; not shown: Fc of the bought chimera
T9 sequence (looked up): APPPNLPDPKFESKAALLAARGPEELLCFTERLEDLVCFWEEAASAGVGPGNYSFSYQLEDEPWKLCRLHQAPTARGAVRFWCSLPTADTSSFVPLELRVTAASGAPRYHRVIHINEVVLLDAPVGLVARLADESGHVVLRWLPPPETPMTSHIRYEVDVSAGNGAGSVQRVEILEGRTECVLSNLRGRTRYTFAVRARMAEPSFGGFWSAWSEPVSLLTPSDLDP

[14] = molecular target: T10, rHuman P-Cadherin/Fc Chimera, CF (R&D Systems Cat#861-PC) (human, UniProt P22223 108-654); experiment: as above
T10 construct: Bought from R&D Systems; not shown: Fc of the bought chimera

[15] = molecular target: T11, rHuman EGF R/Fc Chimera, CF (R&D Systems Cat#344-ER) (human, UniProt P00533 25-645); experiment: as above
T11 construct: Bought from R&D Systems; also called epidermal growth factor receptor (EGF R); not shown: Fc of the bought chimera

[16] = molecular target: T12, rHuman Notch-1/Fc Chimera, CF (R&D Systems Cat#3647-TK) (human, UniProt P46531 19-526); experiment: as above
T12 construct: Bought from R&D Systems; not shown: Fc of the bought chimera

[17] = molecular target: T13, Recombinant Human DLL4 (R&D Systems Cat#1506-D4/CF) (human, UniProt Q9NR61 27-524); experiment: as above
T13 construct: Bought from R&D Systems; also called rHuman DLL4; delta-like protein 4

[18] = molecular target: T14, rHuman IGF-1 sR, (IGF-1 sR), CF (R&D Systems Cat#391-GR) (human, UniProt P08069 31-932); experiment: as above
T14 construct: Bought from R&D Systems and called a soluble receptor; also called insulin-like growth factor-1 soluble receptor

[19] = molecular target: T15, rHuman Erythropoietin R/Fc Chimera, CF (R&D Systems Cat#963-ER) (human, UniProt P19235 25-250); experiment: MSD Multispot ECL, antigen spotted on plate, Fab 32.5 nM; blank spot 473
T15 construct: Bought reagent; also called EPO R/Fc; EPO R; Fc part of the bought chimera not given
T15 sequence (looked up): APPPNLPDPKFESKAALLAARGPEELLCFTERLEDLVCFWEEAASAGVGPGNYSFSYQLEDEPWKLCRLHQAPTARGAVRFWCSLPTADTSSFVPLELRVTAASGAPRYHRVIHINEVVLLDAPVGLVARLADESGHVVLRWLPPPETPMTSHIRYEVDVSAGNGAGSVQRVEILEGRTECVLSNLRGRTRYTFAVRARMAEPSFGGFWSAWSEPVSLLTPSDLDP

T8 sequence (P08581 25-932, change not shown): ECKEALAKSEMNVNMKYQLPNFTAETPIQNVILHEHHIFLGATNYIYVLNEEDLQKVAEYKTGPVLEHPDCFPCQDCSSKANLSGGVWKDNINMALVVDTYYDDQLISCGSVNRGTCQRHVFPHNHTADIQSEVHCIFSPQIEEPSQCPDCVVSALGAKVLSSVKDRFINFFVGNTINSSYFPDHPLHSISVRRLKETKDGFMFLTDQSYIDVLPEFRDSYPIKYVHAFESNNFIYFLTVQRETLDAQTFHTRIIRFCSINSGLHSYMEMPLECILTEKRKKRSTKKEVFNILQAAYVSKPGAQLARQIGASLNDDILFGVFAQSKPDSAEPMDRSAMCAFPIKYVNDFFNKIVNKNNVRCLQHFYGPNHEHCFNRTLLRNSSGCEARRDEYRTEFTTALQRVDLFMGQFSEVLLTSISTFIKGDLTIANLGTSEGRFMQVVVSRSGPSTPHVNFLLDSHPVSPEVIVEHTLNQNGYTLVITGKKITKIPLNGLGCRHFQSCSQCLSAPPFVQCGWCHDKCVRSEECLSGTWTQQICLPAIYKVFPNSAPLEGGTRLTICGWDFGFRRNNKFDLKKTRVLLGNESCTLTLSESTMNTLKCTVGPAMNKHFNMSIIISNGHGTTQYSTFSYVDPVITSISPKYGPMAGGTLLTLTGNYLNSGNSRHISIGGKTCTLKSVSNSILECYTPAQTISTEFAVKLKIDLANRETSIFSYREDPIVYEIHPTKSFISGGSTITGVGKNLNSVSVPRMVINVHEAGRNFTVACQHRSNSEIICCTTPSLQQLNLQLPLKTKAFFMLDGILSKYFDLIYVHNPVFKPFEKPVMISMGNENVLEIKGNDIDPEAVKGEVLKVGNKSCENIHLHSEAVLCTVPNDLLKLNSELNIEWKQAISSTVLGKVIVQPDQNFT

B1: Fab VH6-1_IGHD3-3*01_IGHJ4*01 & V4-3_IGLJ4*01 (Fab, V domains shown)
VH: QVQLQQSGPGLVKPSQTLSLTCAISGDSVSSNSAAWNWIRQSPSRGLEWLGRTYYRSKWYNDYAVSVKSRITINPDTSKNQFSLQLNSVTPEDTAVYYCAREYYDFWSGYYTDYFDYWGQGTLVTVSS
VL: QPVLTQPTSLSASPGASARLTCTLRSGINLGSYRIFWYQQKPESPPRYLLSYYSDSSKHQGSGVPSRFSGSKDASSNAGILVISGLQSEDEADYYCMIWHSSASFVFGGGTQLIIL
notes: Tested as a purified germline Fab made in E. coli; The VH was cloned into plasmid A (CH1 constant region, His6 and Flag tags) and the lambda VL into plasmid E (lambda CL)
An ECL signal [1] of 407, an ECL signal [2] of 281 and an ECL signal [3] of 462 were found for B1 in this work. The ECL signal [4] was 383, the ECL signal [5] was 419 and the ECL signal [6] was 443. The ECL signal [7] was 352, the ECL signal [8] was 598 and the ECL signal [9] was 444.

B2: Fab VH1-46_IGHD3-10*01_IGHJ4*01 & B3_IGKJ1*01 (Fab, V domains shown)
VH: QVQLVQSGAEVKKPGASVKVSCKASGYTFTSYYMHWVRQAPGQGLEWMGIINPSGGSTSYAQKFQGRVTMTRDTSTSTVYMELSSLRSEDTAVYYCAREYYYGSGSYYNDYFDYWGQGTLVTVSS
VL: not shown
notes: Tested as a Fab made in E. coli; VH was cloned into Plasmid A (CH1 constant region, His6 and Flag tags); The kappa VL was cloned into Plasmid C (kappa CL)
An ECL signal [10] of 347, an ECL signal [11] of 302 and an ECL signal [12] of 336 were found for B2 in this work. It also gave an ECL signal [13] of 2390, an ECL signal [14] of 343 and an ECL signal [15] of 428. It also gave an ECL signal [16] of 331, an ECL signal [17] of 388 and an ECL signal [18] of 309.

B3: Fab VH1-8_IGHD2-2*01_IGHJ6*01 & L12_IGKJ1*01 (Fab, V domains shown)
VH: QVQLVQSGAEVKKPGASVKVSCKASGYTFTSYDINWVRQATGQGLEWMGWMNPNSGNTGYAQKFQGRVTMTRNTSISTAYMELSSLRSEDTAVYYCARGGYCSSTSCYADYYYYYGMDVWGQGTTVTVSS
VL: not shown
An ECL signal [19] of 673 was found for B3 in this work.

Reference: patent US20120316071A1 (published 2012)
